The data set can be described thus: label from the status in PepcDB records.
“LNDLKESSNNRKARVLYDYDAANSTELSLLADEVITVFSVVGMDSDWLMGERGNQKGKVPITYLELLN”: the protein production result is “not failed”.
For the sequence “LNTAPIFMPNTVGGYFPGPRTFPGNKKILYNSSTMVKALSRGYVVVSAGLRGRTLTNEKGEFIGKAPAFIIDMKAAIRYIKFNKDNFPGDVNKIITNGTSAGGAISALIGASGNNVFFEKELDEIGAADSSDNIFAVSAYCPIHNLENADAAYEWQFNGINDWHTQKIDIKNGKAEFSPLNGQLNELEKQLSSKLKNQFIEYLNSLRLRNPDGDYLTLNKIGEGNFLDLTKKFLIKSAQTEIEKGNELNNPNFLDIRNGKVVSLKWKAYLRYITRMKKVPAFDDLGLNNPENDLFGDIKIKAKHFTEIGQKYSEKTAKKADPELVTAINPLNYLNNQSNSLIAKHWRIRHGAADRDTSFAVPIILATTLQNMNLDIDFFMPWAKPHSGDYDLIDLFDWIDSLVKEK”, the protein production entry is “failed”.
As for “LPAGLYFVGTPIGSARDITLRALDVLASAEVIAAEDTRSLRHLLDIHGVPLDGRRVLAYHDHSGAGAQARLLEALAEGKSVAYASEAGMPLIADPGFELSRAAAEAGHMVTC”, the protein production result is “not failed”.
Next, “LPAHSWLGSFQAAGFDLVGQAWLPEQPSATLFLLHGYYDHMGLYRHVIEWALKQGFAVISCDLPGHGLSSGERASITDFAVYQQVLEALFEQAHTLQLPHPWHLCGQSTGGAIAVDHLLHQGARSPVDGQVILLAPLVRPSSWRWSKFSYCVLRHFVNGIERRFSENTNDPAFLPFLEADPLQPRRLPTAWVGALIAWVKRIEAAPRSARRPLIVQGEADGTVDWPHNLEVLKAKFAEPQILMLPEARHHLANELPGIRQRYFDFIDQRLG”: “failed”; “LQQQEEETYADACDEFLDPIMSTLMCDPVVLPSSRVTVDRSTIARHLLSDQTDPFNRSPLTMDQIRPNTELKEKIQRWLAERKQQ”: “not failed”.
Next, “LRASEESFRQAFEYAPSGMAIAEMGGDQHGRILRTNDALCRLLGRPASAMRRYSFSDLVHPEDIGTLLRTSAEGGRAELRLGRRDGTYVWVSLRNSVVADAADGPRFLLTHVEDIEERKRRELQLAHRASHDSLTGLPNSAELRSRLSARLCRRPQSAELGAVESLDAAYAHGQYTTEHPAAYDTSGHGEQPGHGHGFDFTQGPGPYDAFDHHVHTVAPEGQTDDGTKGLAVLFCDLDGFKSINDRFGH”: “failed”; “LSHGDFELAVPGGPVAAYYAAPAGREQLPIVLVVQEIFGLHEHIKDVCRRLAHDGYLAVSVNLYQRQGDASRYDNIPGLVAELVSKVPDEQVHADLDASLAWAAAHGGDGARVGVTGFCWGGRTTWMYAARNPAVKAGVAWYGRLSSGHGPLIKQVPLDVAGSLHAPVLGLYGGKDESIPLDDVRAMEARLQQGGAPAQASRIVVYPQAGHAFLADYRPSYRAADAQDGWRRMLDWFALYL”: “failed”.
As for “LTGFQNYLNSIIDSMPSALIALDEQLYVTQWNQEASALSGTRLDEALNQPIFLAFEPLKPFLPQLKETVEQHTVTKVERVTWFKDEEPKHYALTFYPLMGGAGRGVVIRIDDITQRLSLEEMMVQSEKMLSVGGLAAGMAHEINNPLGAI”, the protein production entry is “failed”.
Take “LTLRSVFQPIFDKQHQVVGAEALVRIFTQHHTQIRPDLFFHSETFADDDKLNVERLSRAIHIRNFSLSPYRDTRLFLNVLPVAGEQFAYCDISSTLLATRLAELNIPHHRVVMELVEIESGDEGMLQMATEKLVANGFQIAIDDFGCKASTPERVAMLRPNIIKLDRQLLLDFMAGDCCGLLAGVQLAQKTGAHTVVEGIETAEQLAAMQKLDINMYQGYYLALP”: the protein production result is on record as “failed”.
The entry for “LTTAGYYAAVDWGTSSFRLWIIGEDGAVLAERRSAEGMTTAAKTGFHTILDGHLAAVSAPAHLPIIICGMAGARQGWKEAGYIETPAALAEIAGRATAIPDVDRDIRILPGLAQRDRRHPDVMRGEETQLLGAAAHLGAGSHLVCMPGTHSKWVRLADDRVEGFSTFMTGELFDTIARHTILSHAVAEADTFAAGSAAFTDAVSRTRENPALATNLLFSVRAGQLLHGTAAADARAQLSGTLIGLEIAGALAGSGSVDGVCLVGSGGLGTLYRTALESQGLNVRAVDADEAVRAGLSAAARAIWPL” is “not failed”.
“LTVHYDLQLYKINYKTQSPDGNLTIASGLVAMPIHPVGQVGIISYQHGTRFERNDVPSRNNEKNYIYLAAYGNSAGYMTVMPDYLGLGDNELTLHPYVQAETLASSSIDMLFAAKELANRLHYPISDKLYLAGYSEGGFSTIVMFEMLAKEYPDLPVSAVAPGSAPYGWEETMHFVMLEPGPRATAYLAYFFYSLQTYKSYWSGFDEIFAPPYNTLIPELMDGYHAVDEILQALPQDPLLIFQPKFSNGIISKTDRNTEILKINFNHYDFKPTAPLLLVGTKGDRDVPYAGAEMAYHSFRKYSDFVWIKSVSDALDHVQAHPFVLKEQVDFFKQFERQE”: the protein production result is “not failed”.
The entry for “LTVTVTHSNEKHDLHVTSQQGSSEPVVQDLAQVVEEVIGVPQSFQKLIFKGKSLKEMETPLSALGIQDGCRVMLIGKKN” is “not failed”.
Next, “LVADASPFAMLEQAPDDLISHYDLTGRLLRVSPAWSRIIGGSVAEAAGRRTWDFIAPEDHPAVAAYYADLLREGAAPSSRLRMRVRHVAGDIRVLESRPMPIRNAEGVVTGFVDIARDITEQIETERRYQLALAQAHEA”: “failed”; “LVRQEETLRLAIDAADVGTWDHDLETGEVRLSDRCYAMFGVTPGEPVTHETLMPFTHPADVVRVQEAVARALDPAIRADYAIEFRVNGRDDHVERWLSAKGEVSFDNEGRPRRFLGAVVNITERKRAELHLRLLVNELNHRVKNSLATIQAIAAQSFNGQRDMDEAKEAFSNRIVALAEAHDLLTRENWEGAEMHDVAARVAALHGGDARFELSGVAIRLSPKTALSLSMALHELATNAVKYGALSVPEGVVRIVWDMAPEP”: “failed”.
For the sequence “LYATLSGVSLALADSADRRILLQTVCDVCVREAGFEMAWVGLLDADEKRVEVAALSRGERASMPGELPGHAEDAQAPGPVSRALRSRAAQVSNDAQSDPALKPWHGALSRQGIRSLLVVPLLVRQQVAGALALHAGEEGFFDQSRRALFELMAREIGRGLERHDALERSHRAETELAFLAQ”, the protein production entry is reported as “failed”.
As for “LYPILIGIYASVIPFYIALYSTFRLLSYIDENKAFSQISVKALNNIKHCTIAISILYMATMPFVYLLADKDDAPGLIIIGMVPIFASLVISVFSAVLQRLLQEAIDIKSENDLTV”, the protein production entry was “failed”.
In the case of “MAAEHGLILDFTTVLGASALGGYLANRLRQPVLLGYLVTGLALGPYGLKLLSDVPRIQSLASIGVAFLLFALGVEFSLTELRRVKNIAINGSLLQIGLTTALVAFLTITLGWVDNLTQGIFLGVVLSLSSTAVVLKTLGERGETNTLHGQVMLAILIAQDLALGLILAFLPVLNQPERLVWALGIALLKVLLFLALAIALGRWIVPKLISNVAATESTELFVLTVISLCLSVALVTAKLGLSIEMGAFVAGLMVSEIDHADHALAKVLPLRDTFACLFFASIGMLIDPIALMQNLGLVLGLVTLVMLGKAIVVMPIILKFGYSLKTTILTSLGINQIGEFSFVLALAGLQLQLIPEKTYILLLETTAITLVLTPISLNIAPQLIERLTQIPFFAQSLRQFTEPNILSIPETISGHVVVAGYGRVGQVIVNILLNQGYVVLVIENSEAAIQRLRMQRIPYIFGDADSELVLEKIHLETAKALAIALPDPASSRLLLKRALAIAPKLDVIARSHHDNEIDLLTQMGAKEVVQPEFEAALELSAHLLSTLGEAKSQIDTVISDIRTDRYRSIRPRR”, the protein production entry is reported as “failed”.
“MAAHLEEQQELDNFKYFWKTTGKWLFALLILAALGYLGYTVYQNRKVSQNQEAAAVLANIVEKAQSKAPQSEINAELTKLQQSYPHSISAAQATLMAAATEFDAQRYDVAEGHLKWVLSNQKDSLIQALAAQRLGVVLLQQKKYDAALAALDTPVEADFAPLLMETKGDVYAAQGKSQEALKNYGQALEKMPQDSVGRELVQMKLDSLK”: the protein production result is on record as “failed”.
Take “MAAIVLTRNLQLAKHHGSGVVGVLCLRGYSAAAAPPEDGPRPLKTTNPAAMKRGTGGRSSFNGIVATVFGATGFVGRYVCNKLGKSGTQMILPYRGDDSDVIRLKVTGDLGQVLFHFYNLEDPASIRDAVKHSNVVINLVGRDFETKNFKFKDVHVNGAERIARIAREAGVERLIHLSSLNVEANPKDLYVKGGSEWLKSKYEGELRVRDAFPNATIIRPADIYGSEDRFLRYYAHIWRRQFRSMPLWHKGEKTVKQPVYVSDVAQAIINAAKDPDSAGRIYQAVGPKRYQLSELVDWFHRLMRKDQKRWGYMRYDMRWDPTFLLKAKLNSFICPGTPIGGLHPARIEREAVTDKVLTGVPTLEDLGVTLTTMEQQVPWELRPYRAALYYDAELGEFETPSPPKCIEARDELRLFA”: the protein production result is recorded as “failed”.
Turning to “MAAKLCIPSSSFSHRTNDSITSSSSSYSSLLALPQFFCPPSPLGFPQFKLHAKLGGGDGEVKPKDKKKFITKDEEPEQYWQSVGEREGENPMKTPLPYIIIFGMSTPFVILAIAFANGWIKVPIR”, the protein production result is on record as “failed”.
With “MAAKTRTFRAAADAWLKAKEEKGLAPSTLNKIRTYLDKDILPALGDKPLDEITRTDCAELQASIEARDAHNVAEKCRTWINQIFGRAIGLGLTENDPGSRLRDIAAQAPKTQLEHHHHHH”, the protein production entry is “failed”.
The entry for “MAALAIIQSLNTSSYPIDIQRLKPKKMPEEPGPARNKFRSDFIVEIALIVAVAVYLVMAQGQVVGENLSFTVTGAALMALATYWTLHTIRDGLEVIALRLRPGK” is “failed”.
“MAANRRNETASEAHGLDDILSAAAPRPRTALPNVATTVTTVAALYFGREVFLPIAIALLLTFALAPLVSALKRVGIPRIAAVIVSVLSAFAALALFSFVVATQVSELAQNIPVYQTNILAKIRSLKETGVGGGIIAKLSNVVERVGQEIDRQDATLPAATPDKQPREPVPVEIVARERPLEVLQNIVGPLISPLGSAGLIIVVVIFMLLEREDLRDRFIRLVGYGDLHRTTEALQDAAKRVGRYLLMQLVVNIVYAIPIAIGLWILGIPNALLWGLLALALRFVPYIGPAIGMLLPLFLALAVAPGWSLVLWTAALFVVMELVTGNVVEPWLYGSRTGLSPLAIIVAAIFWTWLWGPLGLVLSTPLTVCLVVLGRHVPQFEFLDVLFGNEPVLEPHARLYQRLLAGDPDEATDHAEEMLEEKYLVEFYDKVAIPALLLGERDRARGVMGDQQRRQVAASALALVANLEDDAKEEADGDDAPHVAEAEGEPGDAVEEEATELPDGTGLSVLCAGGRGDLDDAAAAMLAQVLEVQGATASKAGFAEMEPASIRRLELETIDTVVVGFLNRDSVKHARFLVRRLKRAKAALRVGIVFWSETGNGDKEAAAKLAQDINADFVAHGMVDAVTDALSHEPPVALKLVAKRRMRRPRAAPRKVPAAAAG”: the protein production result is listed as “failed”.
As to “MAAPELLIPWADFLLCVALIAVAGNRLSRYGDVIAEKTGLSGSWIGLILLATATSLPELITGAAAVTAAGAPDIAAGDVLGSCVFNLVILVALDFLHRHESVYRRASQGHLLSAGFGIILLGLVGVNLLLADKHIVPTLGWVGLYSPLLGLLYLFSMRAVFLYEREQMAAFTEDMTEQYPGIRLRRAVMWYVAVAAVVVGAGVWLPSIGTTLAEVMGWNKSFVGTLFVAAATSMPELSVTIGAVRIRAVDMAIANLLGSNLFDLCILAIDDLAYLPGPLLSHVSSVHALSAFSAMVMTGIFIVGLLYRAGTRLFKTVGWVSIALLLVYLGNAYVLYLYDK”, the protein production entry was “failed”.

These data come from a protein production outcome set (Wang et al. 2014).
